Measurements published in paper PMC8616854.

Columns and labels:
[1] = molecular target: CdiA‐CT^BWH57 toxin (nuclease) domain (Serratia marcescens BWH57); assay: crystal structure; CdiA-CT•CdiI complex, 1.59 Å; the N-terminal domain of CdiA-CT was cleaved off by in situ proteolysis before crystallisation
[2] = molecular target: Histidine zipper coiled coil protein from Meiothermus silvanus (Meio) (Meiothermus silvanus); assay: crystal structure; crystal structures of the histidine zipper proteins (1.35 to 1.93 Å); antiparallel homo-dimers
[3] = molecular target: Histidine zipper coiled coil protein from Methylobacter tundripaludum (Tuna) (Methylobacter tundripaludum); assay: as above
[4] = molecular target: Histidine zipper coiled coil protein from Nitrosococcus oceani (Nitro) (Nitrosococcus oceani); assay: as above

In the case of “CdiI^BWH57 immunity protein (natural protein)”, the stoichiometry N [1] is reported as 1.
“Histidine zipper coiled coil protein from Meiothermus silvanus (Meio) (natural protein)” was tested, and the stoichiometry N [2] was 2.
“Histidine zipper coiled coil protein from Methylobacter tundripaludum (Tuna) (natural protein)” showed a stoichiometry N [3] of 2.
In the case of “Histidine zipper coiled coil protein from Nitrosococcus oceani (Nitro) (natural protein)”, the stoichiometry N [4] is reported as 2.
